The numbers were not newly measured in publication PMC7510350, which cites them from elsewhere.

By Kd is commonly meant the free concentration of one partner at which half of the binding sites on the other are occupied at equilibrium, for simple one-to-one binding.

In one data set the target is IscA (Escherichia coli) (UniProt P0AAC8).
The target of a further data set is SufA (Escherichia coli) (UniProt P77667).
Chain of UniProt P77667 (P77667 whole entry): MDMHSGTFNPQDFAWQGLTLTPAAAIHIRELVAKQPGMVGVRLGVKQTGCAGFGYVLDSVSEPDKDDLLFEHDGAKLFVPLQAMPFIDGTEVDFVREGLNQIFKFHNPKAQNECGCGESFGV

Chain of UniProt P0AAC8 (P0AAC8 whole entry): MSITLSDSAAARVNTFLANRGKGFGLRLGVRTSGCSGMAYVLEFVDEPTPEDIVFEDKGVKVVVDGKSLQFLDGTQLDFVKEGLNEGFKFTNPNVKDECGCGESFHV

Consider ErpA (from UniProt P0ACC3), for which the Kd is 40 µM in the data set with IscA (Escherichia coli) and 902 µM in the data set with SufA (Escherichia coli).
